{"source": "patent US20090136450A1", "about": "“THERAPY FOR NEUROLOGICAL DISEASES” (priority 2005, published 2009)", "molecules": {"B1": {"name": "mIFNβ: mIFNβ (Serono Pharmaceutical Research Institute, Geneva), interferon beta given to EAE mice (protein, UniProt P01575 22-182, looked up)", "Interferon beta": "INYKQLQLQERTNIRKCQELLEQLNGKINLTYRADFKIPMEMTEKMQKSYTAFAIQEMLQNVFLVFRNNFSSTGWNETIVVRLLDELHQQTVFLKTVLEEKQEERLTWEMSSTALHLKSYYWRVQRYLKLMKYNSYAWMVVRAEIFRNFLIIRRLTRNFQN"}}, "system": "Experimental Autoimmune Encephalomyelitis (EAE)", "experiment": "chronic EAE model in C57BY6 mice, clinical score", "assay_type": "in vivo", "conditions": "chronic EAE in C57BY6 mice (MOG/CFA + B. pertussis toxin); subcutaneous daily treatment, 20,000 U/mouse, started at onset of the disease, 28 to 30 days", "method": "The most widely used animal model for multiple sclerosis is Experimental Autoimmune Encephalomyelitis (EAE), based on shared histopathological and clinical features with the human disease:\nThe chronic EAE model in C57BY6 mice shares some common traits with the primary progressive (PP) or secondary progressive (SP) forms of MS. Mice are immunized in both flanks at day 0 and day 7 with 200 μg s.c. of myelin oligodendrocyte glycoprotein (MOG) in Complete Freund's Adjuvant (CFA) and followed by two injections (on day 0 and day 2) with 500 ng i.p. of B. pertussis toxin.\nGroups are composed of 10 to 13 EAE mice. Clinical scores, overall health status, body weight and mortality are recorded daily. Starting from day 7 the animals are individually examined for the presence of paralysis by means of a clinical score: 0=no sign of disease, 1=tail paralysis, 2=tail paralysis+hindlimb weakness or partial hindlimb paralysis, 3=tail paralysis+complete hindlimb paralysis, 4=tail paralysis+hindlimb paralysis+weakness or partial paralysis of forelimbs, 5=moribund or dead.\nStarting from day 10-12, most animals are becoming increasingly paralysed.\nTherapeutic treatments are started at the onset of the disease, thus once the disease is already established but still progressing and continued for 28 to 30 days. […]"}
{"molecule": "B1", "values": [{"measurement": "clinical output (severity of the disease, paralysis clinical score)", "value": "significantly reducing the severity of the disease from complete hindlimb to partial hindlimb paralysis"}]}
